Test results as given in article PMC5695660 (Nature chemical biology, 2013).
Where two headings read alike, the source gives them in different places.

T1: Cak1p (Saccharomyces cerevisiae, UniProt P43568)
T1 sequence (P43568 1-368): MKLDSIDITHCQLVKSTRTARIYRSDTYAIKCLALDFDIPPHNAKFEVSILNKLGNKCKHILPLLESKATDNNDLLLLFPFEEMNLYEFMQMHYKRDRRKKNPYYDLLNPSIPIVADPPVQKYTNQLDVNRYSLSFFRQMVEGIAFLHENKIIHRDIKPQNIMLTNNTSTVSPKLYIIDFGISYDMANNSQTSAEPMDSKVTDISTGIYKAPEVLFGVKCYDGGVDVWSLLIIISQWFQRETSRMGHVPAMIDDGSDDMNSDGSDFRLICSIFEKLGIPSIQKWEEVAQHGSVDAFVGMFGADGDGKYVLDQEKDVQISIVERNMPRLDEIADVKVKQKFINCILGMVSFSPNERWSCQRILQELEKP

T2: budding yeast Cdc37p (budding yeast, UniProt P06101 1-506)
T2 sequence (looked up): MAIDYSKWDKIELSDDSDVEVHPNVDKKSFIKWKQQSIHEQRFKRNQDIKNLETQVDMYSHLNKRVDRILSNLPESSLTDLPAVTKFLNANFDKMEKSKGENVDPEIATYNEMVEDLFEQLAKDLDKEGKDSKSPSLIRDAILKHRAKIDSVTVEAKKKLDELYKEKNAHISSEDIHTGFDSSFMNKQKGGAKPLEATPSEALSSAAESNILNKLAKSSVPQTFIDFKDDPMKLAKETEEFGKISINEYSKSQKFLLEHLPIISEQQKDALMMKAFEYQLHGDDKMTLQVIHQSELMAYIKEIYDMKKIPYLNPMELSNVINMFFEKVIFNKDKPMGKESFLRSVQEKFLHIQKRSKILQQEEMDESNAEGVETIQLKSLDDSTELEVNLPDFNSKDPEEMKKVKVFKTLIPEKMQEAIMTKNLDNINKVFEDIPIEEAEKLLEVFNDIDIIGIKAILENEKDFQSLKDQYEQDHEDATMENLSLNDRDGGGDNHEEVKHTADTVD

B1: Cdc37 phosphorylated on Ser13 (natural protein, human, UniProt Q16543 1-378, looked up)
chain: MVDYSVWDHIEVSDDEDETHPNIDTASLFRWRHQARVERMEQFQKEKEELDRGCRECKRKVAECQRKLKELEVAEGGKAELERLQAEAQQLRKEERSWEQKLEEMRKKEKSMPWNVDTLSKDGFSKSMVNTKPEKTEEDSEEVREQKHKTFVEKYEKQIKHFGMLRRWDDSQKYLSDNVHLVCEETANYLVIWCIDLEVEEKCALMEQVAHQTIVMQFILELAKSLKVDPRACFRQFFTKIKTADRQYMEGFNDELEAFKERVRGRAKLRIEKAMKEYEEEERKKRLGPGGLDPVEVYESLPEELQKCFDVKDVQMLQDAISKMDPTDAKYHMQRCIDSGLWVPNSKASEAKEGEEAGPGDPLLEAVPKTGDEKDVSV
modifications: phosphoserine at 13
B2: Cdc37 (human, full length), bacterially expressed (natural protein, UniProt Q16543 1-378, looked up)
chain: B1 chain
B3: BRaf kinase domain (wild-type, native; amino acids 433-726), Sf9 (domain or fragment, human, UniProt P15056 433-726, looked up)
chain: EDRNRMKTLGRRDSSDDWEIPDGQITVGQRIGSGSFGTVYKGKWHGDVAVKMLNVTAPTPQQLQAFKNEVGVLRKTRHVNILLFMGYSTKPQLAIVTQWCEGSSLYHHLHIIETKFEMIKLIDIARQTAQGMDYLHAKSIIHRDLKSNNIFLHEDLTVKIGDFGLATVKSRWSGSHQFEQLSGSILWMAPEVIRMQDKNPYSFQSDVYAFGIVLYELMTGQLPYSNINNRDQIIFMVGRGYLSPDLSKVRSNCPKAMKRLMAECLKKKRDERPLFPQILASIELLARSLPKIHR
B4: Cak1p, cyclin-dependent kinase activating kinase from budding yeast (enzyme, UniProt P43568 1-368, looked up)
chain: T1 sequence (P43568 1-368)

Key:
[1] = biological target: Cdc37 (human, full length), bacterially expressed (human) (UniProt Q16543); test: ITC
Cak1p = biological target: T1, Cak1p; test: isothermal titration calorimetry; assay type: binding
[2] = biological target: T3, Hsp90β, bacterially expressed (human, UniProt P08238 1-724); test: SEC
T3 sequence (P08238 whole entry): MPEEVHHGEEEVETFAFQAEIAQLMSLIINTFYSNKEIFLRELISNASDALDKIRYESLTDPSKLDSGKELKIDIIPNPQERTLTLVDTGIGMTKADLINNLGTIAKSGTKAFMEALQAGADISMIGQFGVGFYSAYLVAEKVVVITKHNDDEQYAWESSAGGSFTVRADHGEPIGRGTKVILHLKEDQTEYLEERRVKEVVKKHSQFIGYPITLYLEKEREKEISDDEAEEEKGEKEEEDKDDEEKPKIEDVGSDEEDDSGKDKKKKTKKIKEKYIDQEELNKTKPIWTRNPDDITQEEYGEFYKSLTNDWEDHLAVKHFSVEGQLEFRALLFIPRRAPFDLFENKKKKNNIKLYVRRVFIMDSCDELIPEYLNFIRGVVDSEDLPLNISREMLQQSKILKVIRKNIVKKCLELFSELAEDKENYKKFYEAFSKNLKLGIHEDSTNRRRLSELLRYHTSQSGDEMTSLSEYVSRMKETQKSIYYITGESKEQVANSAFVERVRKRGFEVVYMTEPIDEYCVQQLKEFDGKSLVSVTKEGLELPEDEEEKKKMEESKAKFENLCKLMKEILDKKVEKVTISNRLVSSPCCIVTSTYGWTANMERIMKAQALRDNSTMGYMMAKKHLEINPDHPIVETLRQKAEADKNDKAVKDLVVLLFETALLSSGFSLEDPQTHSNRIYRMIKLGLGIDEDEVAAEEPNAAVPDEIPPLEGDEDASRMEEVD

[3] = biological target: T3, Hsp90β, bacterially expressed; test: SEC; remark: listed apart in the source
[4] = biological target: B2; test: SEC
budding yeast Cdc37p = biological target: T2, budding yeast Cdc37p; test: SEC

## solubilised BRaf V600E kinase domain (sBRafV600E), bacterially expressed (from UniProt P15056 457-717) (domain or fragment)
[1]
  Kd: 0.2 µM

## NC1=N/C(=C2/CCNC(=O)c3[nH]ccc32)C(=O)N1 [debromohymenialdisine]
Cak1p
  Kd: ~1.7 µM

## B1
[2]
  binding result: binds

## B2
[3]
  binding result: binds

## B3
[4]
  binding result: binds

## B4
Budding yeast Cdc37p
  binding result: binds
